US20260034246A1

Tests used:
[1] = target: Mouse Complement C5 Protein (mouse) (UniProt P06684)
[2] = target: Cyno Complement C5 Protein (cynomolgous macaque)
[3] = target: Human Complement C5 Protein (human) (UniProt P01031)

## recombinant C5 inhibitor (C5I) protein (from UniProt Q5YD59 19-168)
[1]
  Kd: 6.28 nM
[2]
  Kd: 5.09 nM
[3]
  Kd: 10.2 nM
